Measurements reported in patent publication US20160272977, “DNMT Inhibitors” (New England Biolabs, Inc., published 2016).

Assays:
DNMT1 full-length [1] = molecular target: T1, DNMT1 full-length (Homo sapiens, UniProt P26358 SEQ:1-1616); assay: inhibition; competitive vs hemimethylated DNA, 37 C; settings: tags: baculovirus Sf9
DNMT1 full-length [2] = molecular target: T1, DNMT1 full-length; assay: inhibition; competitive vs hemimethylated DNA; settings: tags: baculovirus Sf9
Protocol: Single point biochemistry assays were performed by incubating 10 nM of the DNMT1 enzyme with 1 μM of hemimethylated DNA and 5.328 μM of [³H]AdoMet in the presence of 5.28 μM of folded synthetic RNA oligos. The reaction was done for 15 minutes and radioactivity was counted. [³H]AdoMet incorporation, initial velocity curve and Kᵢ were calculated as described in Example 2.
FIGS. 7C and 7D are representative plots of the inhibitory activity of 5p-5 and 3p-5 at increasing concentrations.

DNMT1 full-length [3] = molecular target: T1, DNMT1 full-length; assay: inhibition; competitive vs hemimethylated DNA; settings: tags: baculovirus Sf9; remark: listed apart in the source
GST-DNMT1 fragment 4 [4] = molecular target: T2, GST-DNMT1 fragment 4 (Homo sapiens, UniProt P26358 SEQ:1081-1408); assay: pulldown; greater than asCEBPα-1; settings: tags: N-terminal GST (pGEX-5x-1); label: 5'-33P in pull-down
T2 chain: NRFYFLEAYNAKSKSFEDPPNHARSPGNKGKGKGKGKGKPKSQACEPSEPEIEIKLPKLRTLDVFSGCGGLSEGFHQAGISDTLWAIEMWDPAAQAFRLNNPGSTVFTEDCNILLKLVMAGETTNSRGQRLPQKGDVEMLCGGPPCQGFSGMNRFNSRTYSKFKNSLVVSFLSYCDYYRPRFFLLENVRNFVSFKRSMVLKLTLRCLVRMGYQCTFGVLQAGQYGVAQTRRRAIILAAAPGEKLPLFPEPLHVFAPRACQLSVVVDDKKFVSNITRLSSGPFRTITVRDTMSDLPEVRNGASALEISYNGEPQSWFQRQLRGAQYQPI
Excerpt: (§1) The resulting protein bands are shown in FIG. 1B; asterisks mark the positions of the GST-DNMT1 fusion proteins. GST-DNMT1 fragments were adjusted to the same protein concentration with 50% slurry sepharose beads. RNase inhibitor (New England Biolabs, Ipswich, Mass.) was applied to beads slurry at 40 U/mL immediate before use.
(§2) The GST-DNMT1 fragments exposed to a series of small RNA molecules are depicted in FIG. 1D. The RNA oligos were labelled at the 5′ end with [γ-33P]ATP (PerkinElmer, Waltham, Mass.) using T4 polynucleotide kinase (New England Biolabs, Ipswich, Mass.), and purified with Illustra® ProbeQuant® G-50 Micro Columns (GE Healthcare Life Sciences, Piscataway, N.J.) per the manufacturer's instructions. The binding assay was performed in 50 μL reaction volume containing 20 μL of GST-DNMT1 fragment beads, 5 μL of 5 μM labelled RNA oligo, 5 μL of 10×DNMT1 reaction buffer (New England Biolabs, Ipswich, Mass.) and 20 μL of RNase-free water. After incubation at 37° C. for 10 minutes, beads were washed twice and suspended in 200 μL of PBS. The radioactivity associated with the beads was analyzed by liquid scintillation counting using a Tri-Carb® 2900TR (PerkinElmer, Waltham, Mass.). The amount of RNA oligo bound to beads were calculated by normalizing the scintillation counts of beads to that of 1 pmol labelled RNA oligo.

GST-DNMT1 fragment 4 [5] = molecular target: T2, GST-DNMT1 fragment 4; assay: pulldown; GST pull-down, 33P RNA, 37 C; lower than HPE variant; settings: tags: N-terminal GST (pGEX-5x-1); label: 5'-33P in pull-down; stem-loop
Excerpt: as §1, §2

GST-DNMT1 fragment 4 [6] = molecular target: T2, GST-DNMT1 fragment 4; assay: pulldown; most efficient binder of the four; settings: tags: N-terminal GST (pGEX-5x-1); label: 5'-33P in pull-down; predicted to lack stem-loop
Excerpt: as §1, §2

DNMT1 full-length [7] = molecular target: T1, DNMT1 full-length; assay: inhibition; mixed inhibition vs AdoMet; settings: tags: baculovirus Sf9
Protocol: For determination of the inhibition pattern and Kᵢ of asCEBPα-2 versus hemimethylated DNA substrate, 20 nM of the DNMT1 enzyme was incubated with 1.328, 0.884, 0.59, 0.394, 0.262, 0.1748 and 0.1168 μM (concentration calculated in terms of hemimethylated CpG) of the 36-bp length hemimethylated DNA substrate with the sequence of (CMeGG•CCG)₁₂ and 5.328 μM of [³H]AdoMet (PerkinElmer, Waltham, Mass.) in the presence of 0, 0.25, 0.5, 1, 2 and 4 μM folded asCEBPα-2 inhibitor RNA in 1×DNMT1 reaction buffer (New England Biolabs, Ipswich, Mass.). The reaction was performed at 37° C. for 30 minutes and DNMT1 enzyme was quenched by flash freezing the reaction mix in a dry ice-methanol bath. The reaction was split into two halves and spotted onto DE81 Whatman® 3658-325 ion exchange filter papers (GE Healthcare Life Sciences, Piscataway, N.J.). The Ki and velocity plots were calculated according to Bacolla, et al., J. Biol. Chem., 274:33011-33019 (1999).
For determination of the inhibition patterns of various test RNAs and Kᵢ for asCEBPα-2 versus AdoMet, reactions were carried out at similar conditions as those described above. […] The nanomolar [³H]CH₃ transferred to hemimethylated DNA substrate was calculated in the same way as in the competitive experiment versus hemimethylated DNA substrate, except that the nanomolar concentration obtained was multiplied by an coefficient of 19.5. […]

GST-DNMT1 fragment 4 [8] = molecular target: T2, GST-DNMT1 fragment 4; assay: pulldown; lower than HPE variant; settings: tags: N-terminal GST (pGEX-5x-1); label: 5'-33P in pull-down; stem-loop
Excerpt: as §1, §2

[9] = label: 5'-33P in pull-down, stem-loop

T1 sequence (P26358 whole entry): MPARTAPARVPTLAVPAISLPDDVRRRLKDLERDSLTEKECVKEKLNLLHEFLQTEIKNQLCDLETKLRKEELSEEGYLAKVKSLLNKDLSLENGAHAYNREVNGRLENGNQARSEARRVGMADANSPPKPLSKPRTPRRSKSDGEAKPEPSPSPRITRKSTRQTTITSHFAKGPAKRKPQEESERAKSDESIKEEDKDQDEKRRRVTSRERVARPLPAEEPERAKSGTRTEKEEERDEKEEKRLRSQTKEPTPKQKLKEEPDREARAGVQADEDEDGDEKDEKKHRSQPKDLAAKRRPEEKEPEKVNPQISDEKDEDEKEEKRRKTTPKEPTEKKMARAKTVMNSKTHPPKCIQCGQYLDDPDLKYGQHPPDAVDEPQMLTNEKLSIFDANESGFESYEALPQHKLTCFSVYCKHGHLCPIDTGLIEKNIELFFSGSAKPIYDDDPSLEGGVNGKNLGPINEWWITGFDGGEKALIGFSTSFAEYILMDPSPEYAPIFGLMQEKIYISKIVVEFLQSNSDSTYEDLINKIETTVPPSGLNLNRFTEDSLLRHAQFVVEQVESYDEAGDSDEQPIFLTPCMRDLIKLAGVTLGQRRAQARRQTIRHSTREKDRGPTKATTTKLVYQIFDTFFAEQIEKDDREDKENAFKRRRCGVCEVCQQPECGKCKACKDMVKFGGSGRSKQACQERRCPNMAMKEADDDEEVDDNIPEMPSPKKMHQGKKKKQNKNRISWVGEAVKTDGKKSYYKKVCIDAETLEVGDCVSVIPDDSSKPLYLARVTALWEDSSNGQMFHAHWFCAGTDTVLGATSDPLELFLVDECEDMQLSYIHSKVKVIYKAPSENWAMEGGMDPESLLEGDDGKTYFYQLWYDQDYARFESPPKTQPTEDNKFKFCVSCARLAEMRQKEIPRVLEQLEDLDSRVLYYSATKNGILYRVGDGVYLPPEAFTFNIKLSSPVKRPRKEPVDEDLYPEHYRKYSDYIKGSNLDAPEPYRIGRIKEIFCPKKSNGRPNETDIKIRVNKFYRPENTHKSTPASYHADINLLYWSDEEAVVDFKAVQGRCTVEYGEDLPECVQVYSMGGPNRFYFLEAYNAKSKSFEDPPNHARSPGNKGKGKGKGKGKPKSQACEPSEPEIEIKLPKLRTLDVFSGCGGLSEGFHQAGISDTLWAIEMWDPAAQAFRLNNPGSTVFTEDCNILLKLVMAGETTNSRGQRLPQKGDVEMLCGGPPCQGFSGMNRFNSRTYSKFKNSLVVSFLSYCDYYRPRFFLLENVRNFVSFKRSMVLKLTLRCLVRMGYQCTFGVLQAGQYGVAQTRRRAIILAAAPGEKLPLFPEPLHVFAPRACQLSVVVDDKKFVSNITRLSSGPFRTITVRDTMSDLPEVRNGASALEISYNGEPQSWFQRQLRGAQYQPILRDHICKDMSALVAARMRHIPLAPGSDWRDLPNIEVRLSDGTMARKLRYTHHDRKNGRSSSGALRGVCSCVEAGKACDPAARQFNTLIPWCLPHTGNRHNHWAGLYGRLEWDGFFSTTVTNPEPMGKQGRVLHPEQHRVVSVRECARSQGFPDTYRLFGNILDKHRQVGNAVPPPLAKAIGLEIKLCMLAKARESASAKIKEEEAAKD

UUAAUGCUAAUCGUGAUAGGGGU (ssRNA) [miR-155-5p]
Ki (DNMT1 full-length [1]): 27.9 nM

UCGUGAUAGGGGU (ssRNA) [5p-5]
Ki (DNMT1 full-length [2]): 124 nM

AGGUUGGGAUCGGUUGCAAUGCU (ssRNA) [miR-92a-1-5p]
Ki (DNMT1 full-length [3]): 476 nM

UCUUUGGUUAUCUAGCUGUAUGA (ssRNA) [miR-9-5p]
Ki (DNMT1 full-length [3]): 493 nM

UAAAGUGCUUAUAGUGCAGGUAG (ssRNA) [miR-20a-5p]
Ki (DNMT1 full-length [3]): 560 nM

CCGGGAAGCAGGCGGCGUCAGGC (ssRNA) [asCEBPα-1HPE]
binding result (GST-DNMT1 fragment 4 [4]): binds
Ki (DNMT1 full-length [3]; label: 5'-33P in pull-down): 918 nM

UGAGAACUGAAUUCCAUGGGUU (ssRNA) [miR-146a-5p]
Ki (DNMT1 full-length [3]): 1030 nM

UAGCUUAUCAGACUGAUGUUGA (ssRNA) [miR-21-5p]
Ki (DNMT1 full-length [3]): 1290 nM

AUAAAGCUAGAUAACCGAAAGU (ssRNA) [miR-9-3p]
Ki (DNMT1 full-length [3]): 1600 nM

UAUUGCACUUGUCCCGGCCUGU (ssRNA) [miR-92a-3p]
Ki (DNMT1 full-length [3]): 1650 nM

CCGGGACGCAGGCGGCGUCAGGC (ssRNA) [asCEBPα-1]
binding result (GST-DNMT1 fragment 4 [5]): binds
Ki (DNMT1 full-length [3]; [9]): 2000 nM

GUCCAGUUUUCCCAGGAAUCCCU (ssRNA) [miR-145-5p]
Ki (DNMT1 full-length [3]): 2460 nM

GACAGUGGAGAGGGGCGGAGCGG (ssRNA) [asCEBPα-2HPE]
binding result (GST-DNMT1 fragment 4 [6]): binds
Ki (DNMT1 full-length [3]; label: 5'-33P in pull-down, predicted to lack stem-loop): 135 nM

UGUGCAAAUCCAUGCAAAACUGA (ssRNA) [miR-19b-3p]
Ki (DNMT1 full-length [3]): 3320 nM

GCCAGUGGCGAGGGGCGGCGCGG (ssRNA) [asCEBPα-2]
Ki (DNMT1 full-length [7]; [9]): 91.7 nM
binding result (GST-DNMT1 fragment 4 [8]): binds
Ki (DNMT1 full-length [3]; [9]): 434 nM

UCGGAUCCGUCUGAGCUUGGCU (ssRNA) [miR-127-3p]
Ki (DNMT1 full-length [3]): 269 nM

ACUCAAAAUGGGGGCGCUUUCC (ssRNA) [miR-373-5p]
Ki (DNMT1 full-length [3]): 298 nM

CAAAGUGCUUACAGUGCAGGUAG (ssRNA) [miR-17-5p]
Ki (DNMT1 full-length [7]): 385 nM
Ki (DNMT1 full-length [3]): 317 nM

UAGCAGCACGUAAAUAUUGGCG (ssRNA) [miR-16-5p]
Ki (DNMT1 full-length [3]): 463 nM
